The RNAGym collection of RNA variant scans (doi:10.1073/pnas.2313332121)
Variants at the floor of the assay were thinned out.

B1: TPR 5TU (parent)
chain: GGAUCUUCUCGAUCUAACAAAAAAGACAAAUCUGCCACAAAGCUUGAGAGCAUCUUCGGAUGCAGAGGCGGCAGCCUUCGGUGGCGCGAUAGCGCCAACGUUCUCAACUAUGACACGCAAAACGCGUGCUCCGUUGAAUGGAGUUUAUCAUG

Variants of: B1
Assay: polymerase ribozyme fitness, log enrichment relative to wild type (log ratio); higher = more active; in vitro selection for triplet polymerase activity
How it was run: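 Each subunit of a heterodimeric triplet polymerase ribozyme was mutagenized into a library by PCR, transcribed, and subjected to one round of in vitro selection, run in triplicate. Libraries were annealed with a biotinylated primer, the partner subunit and triplets, incubated frozen at −7 °C, and extended constructs were gel-excised, captured on streptavidin beads and recovered by RT-PCR. Input and output libraries were sequenced on Illumina, keeping genotypes with ≥10 input reads and ≥1 read per output. Fitness is log base 2 of genotype enrichment divided by wild-type enrichment, from inverse-variance-weighted replicate averages.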

Variant | polymerase ribozyme fitness (log ratio)
A52U U82G | -1.46
C32G C72G C87A A98G | ≤ -4.2
G48C U61A C93U U151A | ≤ -4.2
C87G C114U | -4.08
C85U C118G | -0.62
C27G A41U C87U A150C | -3.92
G25A U44G U77A G83U U104A | ≤ -4.2
A26C U61A | -3.34
U15A A20G A26U A39G A47C C79U C103G G140A | ≤ -4.2
U7A G62C | ≤ -4.2
G11U A19U G81U C95U | -1.81
G34C U56A G128A U135C G140U | ≤ -4.2
U31A G46A U82C A89G U145C | -3.66
C79A C93A | -4.12
G59U C96G G133C A137C | ≤ -4.2
C8A G94A C95A | ≤ -4.2
C85G C105U | -1.58
G80A U82G C123A G152U | -4.06
C5G A12G A19U C75A C103G C114U G117A A121C A142U | ≤ -4.2
C116A C123U C125U | -3.41
U45A C54U | -2.52

Variant | polymerase ribozyme fitness (log ratio)
A21G A24U G50A C57A C87G C93G A110U A121U | -4.06
C32U U44A A91G C118A | ≤ -4.2
U9A A12U C114A C125A | ≤ -4.2
C76U G88A A91C | ≤ -4.2
C27A A107G | ≤ -4.2
C96U A137C | -3.39
A52G C72U | -0.83
A19U U56A | -0.835
C8A A12C G42C C72U G86A | ≤ -4.2
G42U G58A G70U A73G G84U C85U U144G A150U | ≤ -4.2
C38U U61C C87U C96G G136U | ≤ -4.2
G11A A12G A52G U56A G81U | -2.09
G48C C87A U130G | ≤ -4.2
C14G A19G C43U G86A U104G C108G A122C | ≤ -4.2
C18A U31C A40C G62C A91C A119G | ≤ -4.2
C54U C57U G83C A106C U135C | ≤ -4.2
C35U G65C C76U C96A | ≤ -4.2
C27G C95U | -3.51
A16G U53A U56G A89C C96U U111C | ≤ -4.2
A52G G117U | 0.374
A22C G50C C57G G80U C87A A150U | ≤ -4.2

Variant | polymerase ribozyme fitness (log ratio)
G71C C87U | -3.34
A52U G58U C95U | -1.52
A107G U144G | -3.59
A20C A26G U56A C63U G67U G80A C85U G86C C103G | ≤ -4.2
C5G U31A A147C | -0.56
A23C G25C C32U A52C C85A | ≤ -4.2
U53C C54U | -1.25
C69A U90A A147C | ≤ -4.2
U4G C51G A73U C87U C96A G117A | ≤ -4.2
C76A G83U C99U A122U | ≤ -4.2
A73G G88A G124C | ≤ -4.2
G48C C75G C87G A91C C103G U134G U135C | ≤ -4.2
U7A U9G | -3.64
C14U A37C | -1.79
C36A A37C C43A U61A C85G | ≤ -4.2
A40C A60U G81C A138G C149A | ≤ -4.2
C18U A49U | -1.09
C35U C116U | 0.17
C125U U145A | -1.23
A73C A106U A110C | ≤ -4.2
U13G C14G C18U A22C C57U G59A C75A C93A G143U U146A G152U | ≤ -4.2

Variant | polymerase ribozyme fitness (log ratio)
C10G A40G A49C U102G G128A | ≤ -4.2
A19C C35A | -3.08
A52G C96G | -2.13
C8A U9G A12C A29U A30U G88U C93A A107G | ≤ -4.2
U53A A64G C103G G124A | ≤ -4.2
U7G U55A A91U U130A G141C | ≤ -4.2
C38A A64C G88C | ≤ -4.2
A40C G68U C99A U130G | ≤ -4.2
C36G C69A U78C C85U U102C U127A | ≤ -4.2
U61A G65C U82G C118A A138U U151A | ≤ -4.2
C85U A97C G124U | 0.338
G58A G59U C87U G136A | 0.169
C76U C103A G141C | -4.16
C8G A24U A26G A52C C93G | ≤ -4.2
A3U C76A | -1.8
A64C A66U A122G | ≤ -4.2
U56A U101G U144C | -0.262
C27A U82A A91G C131G U139C | ≤ -4.2
A19U C96U A120G A121C | -0.837
A41C G80U C95A | -1.46
